Measured values taken from US9029105B2, “Microorganism producing L-methionine precursor and method of producing L-methionine and organic acid from the L-methionine precursor” (CJ Cheiljedang Corporation, priority 2006, dated 2015).

How the values were obtained:
Type in all cases: biochemical
[1] = HPLC of final methionine and acetic acid after one-hour reaction with O-acetylhomoserine; settings: from O-acetylhomoserine
Experimental: (§1) First, O-succinylhomoserine (Sigma, USA) was dissolved in 0.1 M potassium phosphate buffer (pH 7.5) with the concentration of 3 mM. Pyridoxal 5′-phosphate (Sigma, USA) used as a coenzyme was added into the reaction solution with the final concentration of 10 μM. Methylmercaptan (Methylmercaptan, Tokyo Kasei Organic Chemicals, Japan) used as another substrate was added into the reaction solution with the final concentration of 2 mM. 1 ml of the reaction solution was placed in 37° C., to which 10 μL of each enzyme solution (protein conc.: 5 mg/ml) was added. 100 μL of the reaction solution was collected every 5-10 minutes and added into 900 μL of 4 mg/ml DTNB (Sigma, USA) solution. OD415 was measured to confirm the on-going of the reaction.
(§2) Experiment was performed with O-acetylhomoserine by the same manner as described in Example <3-20>. O-acetylhomoserine was purified from the supernatant of fermented solution. The same reaction solutions and enzyme solutions as used for the experiment with O-succinylhomoserine were used for the reaction. […] Upon completion of one-hour reaction, HPLC was performed to confirm the final productions of methionine and […].

[2] = Conversion reaction of O-acetylhomoserine with methylmercaptan by enzyme solutions (DTNB, OD415); settings: OAHS as a substrate
Experimental: as §1
DTNB was reacted with SH group of methylmercaptan remaining in the reaction solution and thus synthesized a yellow substance. Thus, whether the reaction was going on or not was checked by observing the disappearance of yellow color of the reaction solution resulted from the conversion reaction of methylmercaptan into methionine.
Experiment was performed with O-acetylhomoserine by the same manner as described in Example <3-20>. O-acetylhomoserine was purified from the supernatant of fermented solution. The same reaction solutions and enzyme solutions as used for the experiment with O-succinylhomoserine were used for the reaction. […]

[3] = Feed-back inhibition of converting enzyme by methionine, OAHS as substrate; settings: presence of methionine
Experimental: as §2
Feed-back inhibition in the presence or absence of methionine was identified by the same manner as described in Examples <3-20> and <3-21>. The reaction solutions were prepared by the same manner above and the same reaction was performed by adding or not adding 5 g/L of methionine in the each reaction solution. The reaction speed in the reaction solution without methionine was regarded as 100%, based on which the remaining activity in the presence of methionine was calculated as %.

[4] = HPLC of final methionine and succinic acid after one-hour reaction with O-succinylhomoserine; settings: from O-succinylhomoserine
Experimental: as §1
Upon completion of one-hour reaction, HPLC was performed to confirm the final productions of methionine and succinic acid.

Molecule | amount of Acetic acid [1] [g/L] | amount of Methionine [1] [g/L] | enzyme activity with O-acetylhomoserine (FIG. 6), in words [2] | inhibition of enzyme activity by methionine, in words [3] | amount of Methionine [4] [g/L] | amount of Succinic acid [4] [g/L]
Leptospira meyeri MetY: O-acetylhomoserine sulfhydrylase derived from Leptospira meyeri (protein, UniProt P94890 1-442, looked up) O-acetyl-L-homoserine …: MVGPSGESMPRNFKPETIALHGGQEPDPTTTSRAVPLYQTTSYVFKDTDHAARLFGLQEFGNIYTRLMNPTTDVLEKRVAALEGGVAALATASGQSAEMLALLNIVEAGQEIVASSSLYGGTYNLLHYTFPKLGIKVHFVDQSDPENFRKASNDKTRAFYAETLGNPKLDTLDIAAVSKVAKEVGVPLVIDNTMPSPYLVNPLKHGADIVVHSLTKFLGGHGTSIGGIIIDGGSFNWGNGKFKNFTEPDPSYHGLKFWEVFGKFEPFGGVNIAFILKARVQGLRDLGPAISPFNAWQILQGVETLPLRMERHSGNALKVAEFLQKHPKIEWVNYPGLSTDKNYATAKKYHERGLFGAIVGFEIKGGVEKAKKFIDGLELFSLLANIGDAKSLAIHPASTTHQQLTGPEQISAGVTPGFVRLSVGLENIDDILVDLEEALKNI | 0.05 | 0.15 | high enzyme activities | inhibited by methionine |  | 
Pseudomonas aurogenosa MetZ: O-succinylhomoserine sulfhydrylase derived from Pseudomonas aeruginosa, cell extract enzyme solution (protein, UniProt P55218 1-403, looked up, cell extract, O-succinylhomoserine sulfhydrylase derived from Pseudomonas aeruginosa, cell extract enzyme solution) O-succinylhomoserine …: MTQDWDAGRLDSDLEGAAFDTLAVRAGQRRTPEGEHGEALFTTSSYVFRTAADAAARFAGEVPGNVYSRYTNPTVRTFEERIAALEGAEQAVATASGMSAILALVMSLCSSGDHVLVSRSVFGSTISLFDKYFKRFGIQVDYPPLSDLAAWEAACKPNTKLFFVESPSNPLAELVDIAALAEIAHAKGALLAVDNCFCTPALQQPLKLGADVVIHSATKYIDGQGRGMGGVVAGRGEQMKEVVGFLRTAGPTLSPFNAWLFLKGLETLRIRMQAHSASALALAEWLERQPGIERVYYAGLPSHPQHELARRQQSGFGAVVSFDVKGGRDAAWRFIDATRMVSITTNLGDTKTTIAHPATTSHGRLSPEDRARAGIGDSLIRVAVGLEDLDDLKADMARGLAAL |  |  |  |  | 0.22 | 0.17
Escherichia Coli K12 MetB: cystathionine gamma synthase derived from E. coli, cell extract enzyme solution (protein, UniProt P00935 1-386, looked up) Cystathionine gamma-synthase: MTRKQATIAVRSGLNDDEQYGCVVPPIHLSSTYNFTGFNEPRAHDYSRRGNPTRDVVQRALAELEGGAGAVLTNTGMSAIHLVTTVFLKPGDLLVAPHDCYGGSYRLFDSLAKRGCYRVLFVDQGDEQALRAALAEKPKLVLVESPSNPLLRVVDIAKICHLAREVGAVSVVDNTFLSPALQNPLALGADLVLHSCTKYLNGHSDVVAGVVIAKDPDVVTELAWWANNIGVTGGAFDSYLLLRGLRTLVPRMELAQRNAQAIVKYLQTQPLVKKLYHPSLPENQGHEIAARQQKGFGAMLSFELDGDEQTLRRFLGGLSLFTLAESLGGVESLISHAATMTHAGMAPEARAAAGISETLLRISTGIEDGEDLIADLENGFRAANKG |  |  |  |  | 0.14 | 0.1
